From patent US20030134779A1, “Method and composition for treatment and/or prevention of antibiotic-resistant microorganism infections” (priority 2002, published 2003)

Experiments:
S. aureus SHY97-4320 [1] = test: WGA-gold labelling of cell wall and cell division, electron microscopy; format: cell-based, Staphylococcus aureus
Procedure: To investigate the mechanism of action of LF in combination with penicillin G on cell division, transmission electron microscopy was also performed on thin section of a β-lactamase producing S. aureus SHY97-4320. Bacterial cells were grown in MHB containing 8 μg/ml of penicillin G, 1 mg/ml LF alone or in combination for 4-h at 37° C. with agitation at 150 rpm. Bacteria were harvested and incubated or not for 2-h in 0.02 M Tris (pH 7.4) containing 0.15 M NaCl, 0.5 mg/ml and 50 μl of wheat germ agglutinin (WGA) gold (Sigma Chemicals, St-Louis, Mo.) for 2 h. Bacteria cell morphology was evaluated by transmission electron microscopy as previously described. Effects of treatments were evaluated and compared by “t” test. […] The WGA has an affinity for N-acetyl-β-D-glucosamyl residues and N-acetyl-β-D-glucosamine oligomer. After treatment with LF, S. aureus cells were less covered (P<0.005) with WGA-gold (FIG. 12 and Table 3).

[2] = test system: β-lactamase activity of S. aureus SHY97-4320; test: β-lactamase activity, nitrocefin assay, bovine LF/LFC; format: cell-based
Sequence of β-lactamase activity of S. aureus SHY97-4320 (P00807 25-281): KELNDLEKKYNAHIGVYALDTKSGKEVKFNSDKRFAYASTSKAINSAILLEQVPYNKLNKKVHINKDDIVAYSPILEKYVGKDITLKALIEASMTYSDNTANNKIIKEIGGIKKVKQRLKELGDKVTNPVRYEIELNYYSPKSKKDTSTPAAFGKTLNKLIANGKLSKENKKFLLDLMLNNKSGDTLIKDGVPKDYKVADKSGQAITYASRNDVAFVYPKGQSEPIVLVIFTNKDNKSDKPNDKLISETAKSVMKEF
Procedure: (§1) The effects of sub-MICs of LF (1 mg/ml), LFC (32 and 64 μg/ml) alone or in combination with ampicillin (4μg/ml) or penicillin G (8 μg/ml) were evaluated on the β-lactamase activity of S. aureus strains SHY97-4320 and PC-1. The chromogenic cephalosporin nitrocefin (Becton Dickinson, Microbiology, Cockeysville, Md.) was used in a quantitative spectrophotometric assay. Bacterial cells were first exposed during 4 and 22-h to drugs in broth. The number of bacteria (cfu/ml) were determined and cells aliquots were centrifuged at each point in time. The pellets were suspended in 10 mM HEPES buffer (pH 7.4) to an OD415 nm of 1 for PC-1 and 2 for SHY97-4320. Nitrocefin (100 μM) was added to 100 μl of cells in a final volume of 1 ml. Hydrolysis was measured at 486 nm on spectrophotometer. β-lactamase activity was expressed as ΔO.D.486 nm/min and corrected for bacterial OD.

[3] = test system: β-lactamase activity of S. aureus PC-1; test: as above; format: cell-based; settings: LF 1 mg/ml (P<0.05); LFC 32 or 64 μg/ml (P<0.001)
Sequence of β-lactamase activity of S. aureus PC-1 (P00807 25-281): as above
Procedure: as §1

S. aureus ATCC 25923 = test: Checkerboard MICs and FIC index, penicillin with bovine LF; format: cell-based, Staphylococcus aureus
Procedure: (§2) The MICs were determined by both macrodilution (1 ml/tube) and microdilution (100 μl/well) in sterile 96 well microtiter plates (International Nunc, Napierville, Ill.) techniques in three separate experiments according to the National Committee for Clinical Laboratory Standards (1992 and 1999) in three separate experiments. Serial 2-fold dilutions in MHB of LF, LFC, antibiotic or combination of LF or LFC with antibiotic were inoculated with an overnight culture at a final inoculum of 10^6 cfu/ml in MHB. Effect of LF combination with antibiotic on MICs were determined by adding 0.5 mg or 1 mg/ml of LF to each antibiotic dilution. The MIC was defined as the lowest concentration of drug (highest dilution) that caused a complete inhibition of bacterial growth after an incubation of 18 h. Effect of LF or LFC combination with antibiotic on MIC was also determined by checkerboard method using 96 well microtiter plates. Each antibiotic dilution (50 μl) was serially added to the wells in vertical rows starting from the top (lower dilution) to the bottom. Lactoferrin or LFC (50 μl) were added to 50 μl of each antibiotic dilution and serially diluted starting at the left (lower dilution) to the right. After inoculation, the final concentration of antibiotic from top to bottom were 32 to 8, 2 to 0.5, 0.5 to 0.125 μg/ml for penicillin, cefazolin and neomycin, respectively. From left to right, the concentration of LF or LFC were 25 to 0.0244 mg/ml or 256 to 0.5 μg/ml respectively in a final volume of 100 μl/well. The microplate's were incubated at 37° C. for 24 h. Bacterial growth was measured optically at 540 nm using Spectra Max 250 Microplate Spectrophotometer System of Molecular Device (Fisher Scientific, Ottawa, Canada). Tubes were incubated at 37° C. for 18 h and bacterial growth was measured by visual examination and optically at 540 nm using a spectrophotometer (Philips PU 8800; Pye Unican Ltd, Cambridge, UK). The fractional inhibitory concentration (FIC) was calculated as described by Eliopoulos and Moellering (1991).
(§3) FIC antibiotic A=MICantibiotic A (in the presence of antibiotic B)/MICantibiotic A alone. FIC Index=FICantibiotic A+FICantibiotic B
(§4) The effects of the antibiotics were considered to be synergistic or indifferent when FIC Index was<1 or>1, respectively.

S. aureus PC-1 = test: as above; format: cell-based, Staphylococcus aureus
Procedure: as §2, §3, §4

S. aureus SHY97-3906 = test: as above; format: cell-based, Staphylococcus aureus
Procedure: as §2, §3, §4

S. aureus SHY97-4320 [4] = test: as above; format: cell-based, Staphylococcus aureus
Procedure: as §2, §3, §4

[5] = in combination with penicillin, checkerboard

B1: LF: bovine lactoferrin, 80-kDa iron-binding glycoprotein found in milk (protein, UniProt P24627 20-708, looked up)
Lactotransferrin: APRKNVRWCTISQPEWFKCRRWQWRMKKLGAPSITCVRRAFALECIRAIAEKKADAVTLDGGMVFEAGRDPYKLRPVAAEIYGTKESPQTHYYAVAVVKKGSNFQLDQLQGRKSCHTGLGRSAGWIIPMGILRPYLSWTESLEPLQGAVAKFFSASCVPCIDRQAYPNLCQLCKGEGENQCACSSREPYFGYSGAFKCLQDGAGDVAFVKETTVFENLPEKADRDQYELLCLNNSRAPVDAFKECHLAQVPSHAVVARSVDGKEDLIWKLLSKAQEKFGKNKSRSFQLFGSPPGQRDLLFKDSALGFLRIPSKVDSALYLGSRYLTTLKNLRETAEEVKARYTRVVWCAVGPEEQKKCQQWSQQSGQNVTCATASTTDDCIVLVLKGEADALNLDGGYIYTAGKCGLVPVLAENRKSSKHSSLDCVLRPTEGYLAVAVVKKANEGLTWNSLKDKKSCHTAVDRTAGWNIPMGLIVNQTGSCAFDEFFSQSCAPGADPKSRLCALCAGDDQGLDKCVPNSKEKYYGYTGAFRCLAEDVGDVAFVKNDTVWENTNGESTADWAKNLNREDFRLLCLDGTRKPVTEAQSCHLAVAPNHAVVSRSDRAAHVKQVLLHQQALFGKNGKNCPDKFCLFKSETKNLLFNDNTECLAKLGGRPTYEEYLGTEYVTAIANLKKCSTSPLLEACAFLTR
S. aureus SHY97-4320 [1]; LF 1 mg/ml alone or in combination with penicillin
  cell division: Groups of multiple undivided cell
S. aureus SHY97-4320 [1]; after treatment with LF, P<0.005
  coverage of cells with WGA-gold: less covered
[2]; LF 1 mg/ml alone
  β-lactamase activity: no β-lactamase activity
[2]; LF 1 mg/ml in combination with 8 μg/ml penicillin G, P<0.001
  β-lactamase activity: a significant reduction of β-lactamase activity
[3]
  β-lactamase activity: moderately reduces β-lactamase activity
S. aureus ATCC 25923; by combination with penicillin
  Decrease (of MIC of LF): 32 fold
S. aureus ATCC 25923; [5]
  MIC LF: 780 µg/mL
S. aureus PC-1; by combination with penicillin
  Decrease (of MIC of LF): 64 fold
S. aureus PC-1; [5]
  MIC LF: 390 µg/mL
S. aureus SHY97-3906; by combination with penicillin
  Decrease (of MIC of LF): 16 fold
S. aureus SHY97-3906; [5]
  MIC LF: 1560 µg/mL
S. aureus SHY97-4320 [4]; by combination with penicillin
  Decrease (of MIC of LF): 64 fold
S. aureus SHY97-4320 [4]; [5]
  MIC LF: 390 µg/mL
